Reference: patent US20090047240A1 (CBIO, published 2009)

Tests used:
Assay in all cases: FRET on MonoMac 6 cells, unstimulated and LPS-stimulated
CXCR4 = molecular target: T1, CXCR4 (human, UniProt P61073 1-352)
T1 construct: whole, on cells

TLR4 = molecular target: T2, TLR4 (human, UniProt O00206 24-839)
T2 construct: whole, on cells; also called Toll-like receptor 4

CD14 = molecular target: T3, CD14 (human, UniProt P08571 20-345)
T3 construct: whole, on cells
T3 sequence (looked up): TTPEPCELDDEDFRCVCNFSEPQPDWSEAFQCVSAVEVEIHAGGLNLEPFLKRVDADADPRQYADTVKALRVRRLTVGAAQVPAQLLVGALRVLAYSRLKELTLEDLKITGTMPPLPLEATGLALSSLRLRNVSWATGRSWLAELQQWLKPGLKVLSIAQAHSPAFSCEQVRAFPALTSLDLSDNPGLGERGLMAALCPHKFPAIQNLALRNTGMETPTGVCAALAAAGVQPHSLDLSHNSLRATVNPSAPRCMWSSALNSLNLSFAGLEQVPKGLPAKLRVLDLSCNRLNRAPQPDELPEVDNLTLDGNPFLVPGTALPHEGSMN

Hsp70 = molecular target: T4, Hsp70 (human, UniProt P0DMV8 2-641)
T4 construct: whole, on cells
T4 sequence (P0DMV8 2-641): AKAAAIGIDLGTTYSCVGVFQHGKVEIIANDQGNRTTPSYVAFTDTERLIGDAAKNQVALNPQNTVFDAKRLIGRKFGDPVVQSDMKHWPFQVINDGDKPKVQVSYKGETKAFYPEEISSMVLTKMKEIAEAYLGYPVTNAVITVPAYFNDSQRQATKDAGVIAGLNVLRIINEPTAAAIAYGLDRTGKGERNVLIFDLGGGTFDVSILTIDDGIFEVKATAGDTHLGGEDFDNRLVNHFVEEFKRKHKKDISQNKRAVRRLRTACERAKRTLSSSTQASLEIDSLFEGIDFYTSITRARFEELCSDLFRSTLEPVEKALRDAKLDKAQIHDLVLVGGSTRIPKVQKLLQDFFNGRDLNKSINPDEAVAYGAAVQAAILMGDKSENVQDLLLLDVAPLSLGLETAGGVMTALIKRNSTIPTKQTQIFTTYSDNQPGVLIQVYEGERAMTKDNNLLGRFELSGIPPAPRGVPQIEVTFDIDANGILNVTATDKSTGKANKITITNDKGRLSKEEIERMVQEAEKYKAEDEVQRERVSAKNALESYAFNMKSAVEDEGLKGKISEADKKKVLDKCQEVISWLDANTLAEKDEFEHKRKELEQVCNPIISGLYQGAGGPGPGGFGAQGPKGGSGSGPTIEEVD

Measured: binding result

T1 sequence (P61073 whole entry): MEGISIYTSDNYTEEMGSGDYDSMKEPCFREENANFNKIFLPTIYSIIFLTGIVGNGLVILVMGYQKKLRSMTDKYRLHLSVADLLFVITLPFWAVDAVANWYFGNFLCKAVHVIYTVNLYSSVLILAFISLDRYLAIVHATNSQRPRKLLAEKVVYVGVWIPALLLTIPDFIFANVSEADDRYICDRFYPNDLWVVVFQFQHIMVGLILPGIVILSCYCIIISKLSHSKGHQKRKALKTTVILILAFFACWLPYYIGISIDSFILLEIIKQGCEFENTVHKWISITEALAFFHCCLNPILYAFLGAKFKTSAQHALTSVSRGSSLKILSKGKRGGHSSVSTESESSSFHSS
T2 sequence (O00206 24-839): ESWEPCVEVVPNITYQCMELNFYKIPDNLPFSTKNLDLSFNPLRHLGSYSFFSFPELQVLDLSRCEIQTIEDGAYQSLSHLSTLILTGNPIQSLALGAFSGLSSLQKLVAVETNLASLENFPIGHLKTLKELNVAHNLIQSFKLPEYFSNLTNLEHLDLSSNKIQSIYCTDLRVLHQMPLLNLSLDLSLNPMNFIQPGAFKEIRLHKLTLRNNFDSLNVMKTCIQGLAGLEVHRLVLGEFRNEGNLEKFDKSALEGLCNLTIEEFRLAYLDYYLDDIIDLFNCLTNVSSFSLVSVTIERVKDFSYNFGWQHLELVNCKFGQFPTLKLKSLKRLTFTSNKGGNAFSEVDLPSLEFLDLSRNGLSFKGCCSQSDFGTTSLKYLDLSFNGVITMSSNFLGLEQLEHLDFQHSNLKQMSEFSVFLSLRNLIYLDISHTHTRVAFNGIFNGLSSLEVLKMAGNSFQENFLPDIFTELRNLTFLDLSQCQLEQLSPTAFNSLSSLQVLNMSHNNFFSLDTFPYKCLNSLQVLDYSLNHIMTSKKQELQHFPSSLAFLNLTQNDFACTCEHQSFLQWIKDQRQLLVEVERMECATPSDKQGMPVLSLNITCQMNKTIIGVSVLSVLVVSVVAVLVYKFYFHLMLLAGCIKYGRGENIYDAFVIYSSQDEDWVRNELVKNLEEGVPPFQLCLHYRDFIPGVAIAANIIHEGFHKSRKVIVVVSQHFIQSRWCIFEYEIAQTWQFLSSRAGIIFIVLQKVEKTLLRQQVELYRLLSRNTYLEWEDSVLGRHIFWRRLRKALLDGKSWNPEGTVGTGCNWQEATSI

B1: E. coli GroES (other)
chain: MNIRPLHDRVIVKRKEVETKSAGGIVLTGSAAAKSTRGEVLAVGNGRILENGEVKPLDVKVGDIVIFNDGYGVKSEKIDNEEVLIMSESDILAIVEA
notes: also called E. coli homologue of Cpn10
no binding: CXCR4 | TLR4 | CD14 | Hsp70
